Results published in patent US20140087995A1 (published 2014).
Numbered stars: 1 amine (or outer) side, 2 acyl side, 3 side chain; on linkers, the order of the positions; unused ones are H or OH. Bridge positions count the residues as written; N and C are the ends. Side chains are listed from the residue outwards. Ends that are not written are not given here. * marks the point of attachment. C20 diacid = O=C(O)CCCCCCCCCCCCCCCCCCC(=O)*; γGlu = O=C(O)[C@H](CCC(=O)[*:2])N[*:1]; AEEA = NCCOCCOCC(=O)O

T1: rat calcitonin receptor (rat, UniProt P32214 25-516)
T1 construct: whole, on cells; Used as membranes prepared from the transfected cells; also called rCTR; rat calcitonin (a) receptor
T1 sequence (looked up): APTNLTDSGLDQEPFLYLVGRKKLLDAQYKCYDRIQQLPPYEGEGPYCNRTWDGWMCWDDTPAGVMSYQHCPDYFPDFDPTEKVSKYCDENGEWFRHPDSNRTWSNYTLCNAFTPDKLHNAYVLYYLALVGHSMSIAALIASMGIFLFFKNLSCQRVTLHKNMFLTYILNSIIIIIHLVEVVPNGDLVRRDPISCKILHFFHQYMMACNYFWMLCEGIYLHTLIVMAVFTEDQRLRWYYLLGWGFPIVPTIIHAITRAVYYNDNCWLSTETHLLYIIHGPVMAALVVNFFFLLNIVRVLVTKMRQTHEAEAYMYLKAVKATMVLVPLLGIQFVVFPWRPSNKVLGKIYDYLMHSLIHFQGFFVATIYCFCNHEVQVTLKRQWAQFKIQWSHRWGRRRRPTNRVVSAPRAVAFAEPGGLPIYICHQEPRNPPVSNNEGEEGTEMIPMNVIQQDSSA

T2: human calcitonin receptor (human, UniProt P30988 25-474)
T2 construct: whole, on cells; Used as membranes prepared from the transfected cells (Assay VII); also called hCTR; hCT
T2 sequence (looked up): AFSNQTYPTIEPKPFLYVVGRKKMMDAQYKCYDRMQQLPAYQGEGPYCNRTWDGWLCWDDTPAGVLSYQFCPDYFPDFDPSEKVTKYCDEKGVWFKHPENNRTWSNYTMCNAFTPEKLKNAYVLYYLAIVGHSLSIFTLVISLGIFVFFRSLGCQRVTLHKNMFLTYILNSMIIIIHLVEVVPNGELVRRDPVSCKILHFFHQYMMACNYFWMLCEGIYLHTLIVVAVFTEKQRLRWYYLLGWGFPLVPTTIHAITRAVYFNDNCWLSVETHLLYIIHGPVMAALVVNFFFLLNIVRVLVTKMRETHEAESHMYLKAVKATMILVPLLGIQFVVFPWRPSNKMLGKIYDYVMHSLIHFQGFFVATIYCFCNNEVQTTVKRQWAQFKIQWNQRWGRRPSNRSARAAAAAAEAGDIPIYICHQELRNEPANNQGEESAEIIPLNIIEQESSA

T3: rat amylin receptor (rat calcitonin receptor + rat RAMP 3) (rat, UniProt P32214 25-516; Q9JJ73 23-147)
T3 construct: whole, on cells; Used as membranes prepared from the transfected cells; also called rAmylin-R; rat amylin 3(a) receptor
T3 sequence (looked up) 1: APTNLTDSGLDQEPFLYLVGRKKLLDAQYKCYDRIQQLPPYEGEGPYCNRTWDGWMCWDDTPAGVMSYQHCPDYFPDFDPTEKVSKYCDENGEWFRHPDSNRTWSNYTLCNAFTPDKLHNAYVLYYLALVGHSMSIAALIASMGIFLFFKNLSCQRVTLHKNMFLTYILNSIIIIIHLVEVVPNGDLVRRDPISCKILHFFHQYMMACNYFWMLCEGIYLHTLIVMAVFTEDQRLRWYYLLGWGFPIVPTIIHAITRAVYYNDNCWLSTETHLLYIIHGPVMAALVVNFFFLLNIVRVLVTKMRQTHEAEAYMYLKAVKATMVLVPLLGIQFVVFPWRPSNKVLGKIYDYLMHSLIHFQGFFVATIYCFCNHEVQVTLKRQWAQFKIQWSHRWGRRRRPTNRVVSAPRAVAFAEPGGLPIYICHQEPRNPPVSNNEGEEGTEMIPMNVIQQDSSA
T3 sequence (looked up) 2: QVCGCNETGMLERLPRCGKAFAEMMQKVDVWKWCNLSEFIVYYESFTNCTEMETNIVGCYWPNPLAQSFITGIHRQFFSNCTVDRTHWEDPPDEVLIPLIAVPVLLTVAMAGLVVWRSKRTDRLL

B1: N^ε1-[(4S)-4-carboxy-4-(19-carboxynonadecanoylamino)butanoyl]-[Arg17,Pro21,Pro27,Lys35]-h-amylin (peptide)
peptide: K([γGlu-C20 diacid])CNTATCATQRLANFLRHSSPNFGAIPSSTNVGSKTY-NH2
modifications: disulfide 2-7; N-terminus assumed
SMILES: CC[C@H](C)[C@H](NC(=O)[C@H](C)NC(=O)CNC(=O)[C@H](Cc1ccccc1)NC(=O)[C@H](CC(N)=O)NC(=O)[C@@H]1CCCN1C(=O)[C@H](CO)NC(=O)[C@H](CO)NC(=O)[C@H](Cc1c[nH]cn1)NC(=O)[C@H](CCCNC(=N)N)NC(=O)[C@H](CC(C)C)NC(=O)[C@H](Cc1ccccc1)NC(=O)[C@H](CC(N)=O)NC(=O)[C@H](C)NC(=O)[C@H](CC(C)C)NC(=O)[C@H](CCCNC(=N)N)NC(=O)[C@H](CCC(N)=O)NC(=O)[C@@H](NC(=O)[C@H](C)NC(=O)[C@@H]1CSSC[C@H](NC(=O)[C@@H](N)CCCCNC(=O)CC[C@H](NC(=O)CCCCCCCCCCCCCCCCCCC(=O)O)C(=O)O)C(=O)N[C@@H](CC(N)=O)C(=O)N[C@@H]([C@@H](C)O)C(=O)N[C@@H](C)C(=O)N[C@@H]([C@@H](C)O)C(=O)N1)[C@@H](C)O)C(=O)N1CCC[C@H]1C(=O)N[C@@H](CO)C(=O)N[C@@H](CO)C(=O)N[C@H](C(=O)N[C@@H](CC(N)=O)C(=O)N[C@H](C(=O)NCC(=O)N[C@@H](CO)C(=O)N[C@@H](CCCCN)C(=O)N[C@H](C(=O)N[C@@H](Cc1ccc(O)cc1)C(N)=O)[C@@H](C)O)C(C)C)[C@@H](C)O
notes: Derivative of human amylin; also called compound 35
B2: N^ε1-[2-[2-[2-[[(4S)-4-carboxy-4-(19-carboxynonadecanoylamino)butanoyl]amino]ethoxy]ethoxy]acetyl]-[Arg17,Pro21,Pro27]-h-amylin (peptide)
peptide: K([AEEA-γGlu-C20 diacid])CNTATCATQRLANFLRHSSPNFGAIPSSTNVGSNTY-NH2
modifications: disulfide 2-7; N-terminus assumed
SMILES: CC[C@H](C)[C@H](NC(=O)[C@H](C)NC(=O)CNC(=O)[C@H](Cc1ccccc1)NC(=O)[C@H](CC(N)=O)NC(=O)[C@@H]1CCCN1C(=O)[C@H](CO)NC(=O)[C@H](CO)NC(=O)[C@H](Cc1c[nH]cn1)NC(=O)[C@H](CCCNC(=N)N)NC(=O)[C@H](CC(C)C)NC(=O)[C@H](Cc1ccccc1)NC(=O)[C@H](CC(N)=O)NC(=O)[C@H](C)NC(=O)[C@H](CC(C)C)NC(=O)[C@H](CCCNC(=N)N)NC(=O)[C@H](CCC(N)=O)NC(=O)[C@@H](NC(=O)[C@H](C)NC(=O)[C@@H]1CSSC[C@H](NC(=O)[C@@H](N)CCCCNC(=O)COCCOCCNC(=O)CC[C@H](NC(=O)CCCCCCCCCCCCCCCCCCC(=O)O)C(=O)O)C(=O)N[C@@H](CC(N)=O)C(=O)N[C@@H]([C@@H](C)O)C(=O)N[C@@H](C)C(=O)N[C@@H]([C@@H](C)O)C(=O)N1)[C@@H](C)O)C(=O)N1CCC[C@H]1C(=O)N[C@@H](CO)C(=O)N[C@@H](CO)C(=O)N[C@H](C(=O)N[C@@H](CC(N)=O)C(=O)N[C@H](C(=O)NCC(=O)N[C@@H](CO)C(=O)N[C@@H](CC(N)=O)C(=O)N[C@H](C(=O)N[C@@H](Cc1ccc(O)cc1)C(N)=O)[C@@H](C)O)C(C)C)[C@@H](C)O
notes: Derivative of human amylin; also called compound 41
B3: N^ε1-[(4S)-4-carboxy-4-(19-carboxynonadecanoylamino)butanoyl]-[Arg17,Pro21,Pro27,Glu35]-h-amylin (peptide)
peptide: K([γGlu-C20 diacid])CNTATCATQRLANFLRHSSPNFGAIPSSTNVGSETY-NH2
modifications: disulfide 2-7; N-terminus assumed
SMILES: CC[C@H](C)[C@H](NC(=O)[C@H](C)NC(=O)CNC(=O)[C@H](Cc1ccccc1)NC(=O)[C@H](CC(N)=O)NC(=O)[C@@H]1CCCN1C(=O)[C@H](CO)NC(=O)[C@H](CO)NC(=O)[C@H](Cc1c[nH]cn1)NC(=O)[C@H](CCCNC(=N)N)NC(=O)[C@H](CC(C)C)NC(=O)[C@H](Cc1ccccc1)NC(=O)[C@H](CC(N)=O)NC(=O)[C@H](C)NC(=O)[C@H](CC(C)C)NC(=O)[C@H](CCCNC(=N)N)NC(=O)[C@H](CCC(N)=O)NC(=O)[C@@H](NC(=O)[C@H](C)NC(=O)[C@@H]1CSSC[C@H](NC(=O)[C@@H](N)CCCCNC(=O)CC[C@H](NC(=O)CCCCCCCCCCCCCCCCCCC(=O)O)C(=O)O)C(=O)N[C@@H](CC(N)=O)C(=O)N[C@@H]([C@@H](C)O)C(=O)N[C@@H](C)C(=O)N[C@@H]([C@@H](C)O)C(=O)N1)[C@@H](C)O)C(=O)N1CCC[C@H]1C(=O)N[C@@H](CO)C(=O)N[C@@H](CO)C(=O)N[C@H](C(=O)N[C@@H](CC(N)=O)C(=O)N[C@H](C(=O)NCC(=O)N[C@@H](CO)C(=O)N[C@@H](CCC(=O)O)C(=O)N[C@H](C(=O)N[C@@H](Cc1ccc(O)cc1)C(N)=O)[C@@H](C)O)C(C)C)[C@@H](C)O
notes: Derivative of human amylin; also called compound 27

Legend:
rat calcitonin receptor [1] = biological target: T1, rat calcitonin receptor; assay: ratio IC50 rat calcitonin receptor / IC50 rat amylin receptor (Assays VIII and VI)
[2] = biological target: T2, human calcitonin receptor; assay: ratio IC50 human calcitonin receptor / IC50 human amylin receptor (Assays VII and V)
Outline: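 Competition binding by SPA uses membrane preparations (35 ng/μL final) in pH 7.4 Hepes buffer with 1 mM CaCl2 and 5 mM MgCl₂. Incubation lasts 120 min at 25° C, and IC₅₀ comes from one-site fitting.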

rat calcitonin receptor [3] = biological target: T1, rat calcitonin receptor; assay: SPA competition with 125I-calcitonin, membranes of BHK cells with rat calcitonin receptor (Assay VIII)
[4] = biological target: T3, rat amylin receptor (rat calcitonin …); assay: SPA competition with 125I-rat amylin, membranes of BHK cells with rat calcitonin receptor + rat RAMP3 (Assay VI)

| Binder | Ratio rCT/rAmylin binding (rat calcitonin receptor [1]) | Ratio hCT/hAmylin binding [2] | IC50 (rat calcitonin receptor [3]) [nM] | IC50 [4] [nM] |
| --- | --- | --- | --- | --- |
| B1 | 65.1 | 50.3 | 61.7 | 0.948 |
| B2 | 54 | 49.9 | 74.1 | 1.37 |
| B3 | 147 | 41.3 | 90.2 | 0.614 |
